For data set [1], the system named is VchCAST RNA-guided transposition machinery (E. coli BL21(DE3) host, lacZ target). The data set is described as follows: relative integration efficiency (T-RL orientation) vs wild-type transposon end (log2 (normalized fold change)); transposon end mutated: right end (5 bp flank + 75 bp right end); higher = more efficient transposition. The method in brief:
(§1)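 Co-transformation of E. coli BL21(DE3) combined a pUC57 mini-transposon donor, holding barcoded pools of 1549 left-end or 1849 right-end variants, with a T7-driven plasmid encoding a CRISPR array, tniQ-cas8-cas7-cas6 and tnsA-tnsB-tnsC. After plating with 0.1 mM IPTG at 37°C for 18 h, input plasmids and genomic integration junctions were PCR-amplified and Illumina-sequenced across two biological output replicates, with four reference barcodes. Relative integration efficiency is the normalised, log-transformed output/input barcode fold change.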

The test system is the same in data set [2]. The data set is described as follows: relative integration efficiency (T-LR orientation) vs wild-type transposon end (log2 (normalized fold change)); transposon end mutated: right end (5 bp flank + 75 bp right end); higher = more efficient transposition. The method in brief:
as §1

Experimental findings from the supplement of paper PMC10201428 are described below.

± gives the standard deviation of the averaged measurements.

As for “ACATTTGTTGATACAACCATAAAATGATAATTACACCCATAAATTGATAATTATCAGTGGCATAAATTGATATTGCCTCTGATCATAGTCAGACCAACATTGCTACGACCCGTATTCGCACCGACAC”, the “relative integration efficiency (log2)” value in data set [1] is -0.377 ± 0.12; in data set [2], 1.86 ± 0.12.

In the case of “ACATTTGTTGATACAACCATAAAATGATAATTACACCCATAAATTGATAATTATCAGTGGGTATTTAACTATAACGCTCTGATCATAGTCAGACCAACATTGCTACGACCCGTATTCGCACCGACAC”, the “relative integration efficiency (log2)” value is -0.681 ± 0.17 in data set [1] and 2.65 ± 0.1 in data set [2].

For “ACATTTGTTGATACAACCATAAAATGATAATTACACCCATAAATTGATAATTATCCAACCCATAAATTGATATTGCCTCTGATCATAGTCAGACCAACATTGCTACGACCCGTATTCGCACCGACAC”, the “relative integration efficiency (log2)” value is -0.362 ± 0.18 in data set [1] and 0.964 ± 0.12 in data set [2].

With “ACATTTGTTGATACAACCATAAAATGATAATTACACCCATAAATTGATAATTATCCACAAACGCCCGGTCGCGGTAAGAGGATCATAGTCAGACCAACATTGCTACGACCCGTATTCGCACCGACAC”, the “relative integration efficiency (log2)” value was -0.795 ± 0.075 in data set [1] and 2.3 ± 0.11 in data set [2].

Regarding “ACATTTGTTGATACAACCATAAAATGATAATTACACCCATAAATTGATAATTATCCACACCATAAATTGATATTGCCTCTGATCATAGTCAGACCAACATTGCTACGACCCGTATTCGCACCGACAC”, the “relative integration efficiency (log2)” value in data set [1] was -0.495 ± 0.13; in data set [2] it was 0.485 ± 0.4.

Regarding “ACATTTGTTGATACAACCATAAAATGATAATTACACCCATAAATTGATAATTATCCACCCATAAATTGATATTGCCTCTGATCATAGTCAGACCAACATTGCTACGACCCGTATTCGCACCGACACT”, the “relative integration efficiency (log2)” value in data set [1] was -0.433 ± 0.14; in data set [2], 0.607 ± 0.072.

Take “ACATTTGTTGATACAACCATAAAATGATAATTACACCCATAAATTGATAATTATCCCACCCCATTTAACTATAACGCTCTGATCATAGTCAGACCAACATTGCTACGACCCGTATTCGCACCGACAC”: the “relative integration efficiency (log2)” value is -1.3 ± 0.37 in data set [1] and 2.388 ± 0.023 in data set [2].

On to “ACATTTGTTGATACAACCATAAAATGATAATTACACCCATAAATTGATAATTATCTGACCCATAAATTGATATTGCCTCTGATCATAGTCAGACCAACATTGCTACGACCCGTATTCGCACCGACAC”, for which the “relative integration efficiency (log2)” value in data set [1] is -0.393 ± 0.12; in data set [2], 0.513 ± 0.03.

Turning to “ACATTTGTTGATACAACCATAAAATGATAATTACACCCATAAATTGATAATTATCTGTGCCATAAATTGATATTGCCTCTGATCATAGTCAGACCAACATTGCTACGACCCGTATTCGCACCGACAC”, the “relative integration efficiency (log2)” value is -0.555 ± 0.23 in data set [1] and 2.04 ± 0.1 in data set [2].

“ACATTTGTTGATACAACCATAAAATGATAATTACACCCATAAATTGATAATTATGACACCGAATTTAACTATAACGCTCTGATCATAGTCAGACCAACATTGCTACGACCCGTATTCGCACCGACAC”: the results for the “relative integration efficiency (log2)” value in data set [1] and in data set [2] were -1.22 ± 0.39 and 2.37 ± 0.096, respectively.

Consider “ACATTTGTTGATACAACCATAAAATGATAATTACACCCATAAATTGATAATTATGTCACCCATAAATTGATATTGCCTCTGATCATAGTCAGACCAACATTGCTACGACCCGTATTCGCACCGACAC”, for which the “relative integration efficiency (log2)” value is -0.72 ± 0.15 in data set [1] and 0.557 ± 0.054 in data set [2].

In the case of “ACATTTGTTGATACAACCATAAAATGATAATTACACCCATAAATTGATAATTATGTGTCCCATAAATTGATATTGCCTCTGATCATAGTCAGACCAACATTGCTACGACCCGTATTCGCACCGACAC”, the results for the “relative integration efficiency (log2)” value in data set [1] and in data set [2] were -0.725 ± 0.24 and 1.63 ± 0.16, respectively.

For “ACATTTGTTGATACAACCATAAAATGATAATTACACCCATAAATTGATAATTCACACCCATAAATTGATATTGCCTCTGATCATAGTCAGACCAACATTGCTACGACCCGTATTCGCACCGACACTG”, the “relative integration efficiency (log2)” value in data set [1] was -1.06 ± 0.18; in data set [2], 1.41 ± 0.045.

In the case of “ACATTTGTTGATACAACCATAAAATGATAATTACACCCATAAATTGATAATTCGACACAAACGCCCGGTCGCGGTAAGAGGATCATAGTCAGACCAACATTGCTACGACCCGTATTCGCACCGACAC”, the “relative integration efficiency (log2)” value in data set [1] amounted to 0.636 ± 0.17; in data set [2] it was 3.748 ± 0.033.

As for “ACATTTGTTGATACAACCATAAAATGATAATTACACCCATAAATTGATAATTCGACCACCCATAAATTGATATTGCCTCTGATCATAGTCAGACCAACATTGCTACGACCCGTATTCGCACCGACAC”, the “relative integration efficiency (log2)” value was -0.541 ± 0.14 in data set [1] and 0.317 ± 0.33 in data set [2].

On to “ACATTTGTTGATACAACCATAAAATGATAATTACACCCATAAATTGATAATTCGCACACCCATAAATTGATATTGCCTCTGATCATAGTCAGACCAACATTGCTACGACCCGTATTCGCACCGACAC”, for which the “relative integration efficiency (log2)” value is -0.551 ± 0.065 in data set [1] and 0.189 ± 0.39 in data set [2].

For “ACATTTGTTGATACAACCATAAAATGATAATTACACCCATAAATTGATAATTGTGACACCGAATTTAACTATAACGCTCTGATCATAGTCAGACCAACATTGCTACGACCCGTATTCGCACCGACAC”, the “relative integration efficiency (log2)” value in data set [1] was -0.766 ± 0.25; in data set [2] it was 2.87 ± 0.14.

Consider “ACATTTGTTGATACAACCATAAAATGATAATTACACCCATAAATTGATAATTTACACACCCATAAATTGATATTGCCTCTGATCATAGTCAGACCAACATTGCTACGACCCGTATTCGCACCGACAC”, for which the figures for the “relative integration efficiency (log2)” value in data set [1] and in data set [2] were -0.0701 ± 0.25 and 0.268 ± 0.15, respectively.

For “ACATTTGTTGATACAACCATAAAATGATAATTACACCCATAAATTGATAATTTAGTCACCCATAAATTGATATTGCCTCTGATCATAGTCAGACCAACATTGCTACGACCCGTATTCGCACCGACAC”, the “relative integration efficiency (log2)” value in data set [1] is -0.447 ± 0.07; in data set [2], 0.247 ± 0.11.

On to “ACATTTGTTGATACAACCATAAAATGATAATTACACCCATAAATTGATAATTTCACACCCATAAATTGATATTGCCTCTGATCATAGTCAGACCAACATTGCTACGACCCGTATTCGCACCGACACT”, for which the “relative integration efficiency (log2)” value in data set [1] was -0.767 ± 0.17; in data set [2], 0.745 ± 0.092.

Take “ACATTTGTTGATACAACCATAAAATGATAATTACACCCATAAATTGATACGGCGACACAAACGCCCGGTCGCGGTAAGAGGATCATAGTCAGACCAACATTGCTACGACCCGTATTCGCACCGACAC”: the “relative integration efficiency (log2)” value was -0.726 ± 0.13 in data set [1] and 2.25 ± 0.24 in data set [2].

Turning to “ACATTTGTTGATACAACCATAAAATGATAATTACACCCATAAATTGATACGGCTCACACCCATAAATTGATATTGCCTCTGATCATAGTCAGACCAACATTGCTACGACCCGTATTCGCACCGACAC”, the “relative integration efficiency (log2)” value was -0.622 ± 0.074 in data set [1] and 0.173 ± 0.15 in data set [2].

Consider “ACATTTGTTGATACAACCATAAAATGATAATTACACCCATAAATTGATACGTATCACACCCATAAATTGATATTGCCTCTGATCATAGTCAGACCAACATTGCTACGACCCGTATTCGCACCGACAC”, for which the “relative integration efficiency (log2)” value is -0.704 ± 0.012 in data set [1] and -0.44 ± 0.48 in data set [2].

Regarding “ACATTTGTTGATACAACCATAAAATGATAATTACACCCATAAATTGATATAATTCACACCCATAAATTGATATTGCCTCTGATCATAGTCAGACCAACATTGCTACGACCCGTATTCGCACCGACAC”, the “relative integration efficiency (log2)” value in data set [1] was -0.233 ± 0.14; in data set [2] it was 0.18 ± 0.19.

With “ACATTTGTTGATACAACCATAAAATGATAATTACACCCATAAATTGATATATATCACACCCATAAATTGATATTGCCTCTGATCATAGTCAGACCAACATTGCTACGACCCGTATTCGCACCGACAC”, the “relative integration efficiency (log2)” value in data set [1] was -0.313 ± 0.16; in data set [2], 4.91e-05 ± 0.14.

As for “ACATTTGTTGATACAACCATAAAATGATAATTACACCCATAAATTGATATCACACCCATAAATTGATATTGCCTCTGATCATAGTCAGACCAACATTGCTACGACCCGTATTCGCACCGACACTGAC”, the “relative integration efficiency (log2)” value is -1.06 ± 0.31 in data set [1] and 2.45 ± 0.18 in data set [2].

Regarding “ACATTTGTTGATACAACCATAAAATGATAATTACACCCATAAATTGATATTGCTCACAACCATAAAATGATAATTACTCTGATCATAGTCAGACCAACATTGCTACGACCCGTATTCGCACCGACAC”, the “relative integration efficiency (log2)” value in data set [1] was -0.532 ± 0.27; in data set [2], 0.106 ± 0.059.

In the case of “ACATTTGTTGATACAACCATAAAATGATAATTACACCCATAAATTGATATTGCTCACAACCATAAAGTGATATTTACTCTGATCATAGTCAGACCAACATTGCTACGACCCGTATTCGCACCGACAC”, the “relative integration efficiency (log2)” value in data set [1] is -0.424 ± 0.093; in data set [2], 0.269 ± 0.25.

As to “ACATTTGTTGATACAACCATAAAATGATAATTACACCCATAAATTGATATTGCTCACAACCATAAGTTGATATTTTCTCTGATCATAGTCAGACCAACATTGCTACGACCCGTATTCGCACCGACAC”, the results for the “relative integration efficiency (log2)” value in data set [1] and in data set [2] were -0.473 ± 0.17 and 0.538 ± 0.11, respectively.

Regarding “ACATTTGTTGATACAACCATAAAATGATAATTACACCCATAAATTGATATTGCTCACAACCATATATTGATATCTCCTCTGATCATAGTCAGACCAACATTGCTACGACCCGTATTCGCACCGACAC”, the “relative integration efficiency (log2)” value was -0.74 ± 0.17 in data set [1] and 0.579 ± 0.21 in data set [2].

With “ACATTTGTTGATACAACCATAAAATGATAATTACACCCATAAATTGATATTGCTCACACCCATAAATTGATAATTACTCTGATCATAGTCAGACCAACATTGCTACGACCCGTATTCGCACCGACAC”, the “relative integration efficiency (log2)” value in data set [1] is -0.432 ± 0.2; in data set [2], 0.634 ± 0.033.

Consider “ACATTTGTTGATACAACCATAAAATGATAATTACACCCATAAATTGATATTGCTCACACCCATAAATTGATATTGCCTCTGATCATAGTCAGACCAACATTGCTACGACCCGTATTCGCACCGACAC”, for which the results for the “relative integration efficiency (log2)” value in data set [1] and in data set [2] were -0.394 ± 0.045 and 0.786 ± 0.29, respectively.
